In US20180105569A1 (INDIANA UNIVERSITY RESEARCH AND TECHNOLOGY, published 2018):
Read-outs that look alike come from different tables or passages of the source. Numbered stars: 1 amine (or outer) side, 2 acyl side, 3 side chain; on linkers, the order of the positions; unused ones are H or OH. Square brackets hold non-standard residues; d marks the D form. Side chains are listed from the residue outwards. * marks the point of attachment. γGlu = O=C(O)[C@H](CCC(=O)[*:2])N[*:1]; Desaminotyrosyl = O=C(CCc1ccc(O)cc1)*; Palmitoyl = CCCCCCCCCCCCCCCC(=O)*

T1: GIP receptor (UniProt P48546 22-466, limits assumed)
T1 sequence (looked up): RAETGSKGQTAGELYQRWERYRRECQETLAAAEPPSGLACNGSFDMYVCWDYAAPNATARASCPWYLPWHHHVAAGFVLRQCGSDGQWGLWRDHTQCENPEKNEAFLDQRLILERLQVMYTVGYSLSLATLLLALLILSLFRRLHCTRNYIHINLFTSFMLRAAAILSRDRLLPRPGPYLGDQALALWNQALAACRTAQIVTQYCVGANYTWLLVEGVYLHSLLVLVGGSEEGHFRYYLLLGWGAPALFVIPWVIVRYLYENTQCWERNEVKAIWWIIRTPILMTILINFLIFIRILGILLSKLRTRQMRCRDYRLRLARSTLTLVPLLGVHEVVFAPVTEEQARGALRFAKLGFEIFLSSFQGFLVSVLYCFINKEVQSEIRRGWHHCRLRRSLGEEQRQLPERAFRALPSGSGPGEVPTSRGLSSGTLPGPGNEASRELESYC


Tests used:
Assay in all cases: cell-based or functional assay
GIP receptor [1] = biological target: T1, GIP receptor
GLP-1 receptor [2] = biological target: T2, GLP-1 receptor (UniProt P43220 24-463, limits assumed)
glucagon receptor [3] = biological target: T3, glucagon receptor (UniProt P47871 26-477, limits assumed)
T3 sequence (P47871 26-477 limits assumed): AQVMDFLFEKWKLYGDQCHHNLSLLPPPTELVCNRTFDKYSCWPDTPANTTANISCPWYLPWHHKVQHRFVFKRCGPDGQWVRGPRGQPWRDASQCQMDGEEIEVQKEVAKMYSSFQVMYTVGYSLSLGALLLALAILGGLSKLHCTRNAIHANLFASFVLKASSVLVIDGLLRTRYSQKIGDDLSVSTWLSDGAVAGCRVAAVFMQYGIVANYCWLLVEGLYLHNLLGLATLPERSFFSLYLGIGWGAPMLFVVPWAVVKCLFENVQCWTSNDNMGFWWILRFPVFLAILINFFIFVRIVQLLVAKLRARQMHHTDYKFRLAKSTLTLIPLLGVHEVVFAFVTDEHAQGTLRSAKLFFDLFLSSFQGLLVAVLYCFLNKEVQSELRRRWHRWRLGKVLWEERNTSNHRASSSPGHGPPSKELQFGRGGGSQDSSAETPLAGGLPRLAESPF

GIP receptor [4] = biological target: T1, GIP receptor; remark: listed apart in the source
GLP-1 receptor [5] = biological target: T2, GLP-1 receptor; remark: listed apart in the source
glucagon receptor [6] = biological target: T3, glucagon receptor; remark: listed apart in the source

| Binder | EC50 at GIP Receptor (cAMP luciferase reporter, HEK293) (GIP receptor [1]) [nM] | EC50 at GLP-1 Receptor (cAMP luciferase reporter, HEK293) (GLP-1 receptor [2]) [pM] | EC50 at Glucagon Receptor (cAMP luciferase reporter, HEK293) (glucagon receptor [3]) [pM] | EC50 at GIP Receptor (cAMP luciferase reporter, HEK293) (GIP receptor [4]) [nM] | EC50 at GLP-1 Receptor (cAMP luciferase reporter, HEK293) (GLP-1 receptor [5]) [pM] | EC50 at Glucagon Receptor (cAMP luciferase reporter, HEK293) (glucagon receptor [6]) [nM] |
| --- | --- | --- | --- | --- | --- | --- |
| Ac-YA[dQ]GTFTSDK([γGlu-Palmitoyl])SKYLDERAAQDFVQWLLEGGPSSGAPPPS-NH2 [peptide of SEQ ID NO: 158] | 0.069 |  |  |  |  |  |
| Ac-[dY]AQGTFTSDK([γGlu-Palmitoyl])SKYLDERAAQDFVQWLLDAGPSSGAPPPS-NH2 [peptide of SEQ ID NO: 143] |  | 3 | 4 | 0.003 |  |  |
| [Desaminotyrosyl]AQGTFTSDYSKYLDERAAQDFVQWLLEGGPSSGAPPPSK([γGlu-γGlu-Palmitoyl])G-NH2 [peptide of SEQ ID NO: 160] | 0.086 |  |  |  | 22 | 0.049 |
| Ac-[dH]AQGTFTSDYSKYLDERAAQDFVQWLLEGGPSSGAPPPSK([γGlu-γGlu-Palmitoyl])G-NH2 [peptide of SEQ ID NO: 152] |  | 3 | 3 | 0.017 |  |  |
| Ac-[dY]AQGTFTSDYSKYLDERAAQDFVQWLLEGGPSSGAPPPSK([γGlu-γGlu-Palmitoyl])G-NH2 [peptide of SEQ ID NO: 149] | 0.008 |  |  |  | 2 | 0.012 |
| Ac-[dH]AEGTFTSDK([γGlu-Palmitoyl])SKYLDERAAQDFVQWLLEGGPSSGAPPPS-NH2 (SMILES CCCCCCCCCCCCCCCC(=O)N[C@@H](CCC(=O)NCCCC[C@H](NC(=O)[C@H](CC(=O)O)NC(=O)[C@H](CO)NC(=O)[C@@H](NC(=O)[C@H](Cc1ccccc1)NC(=O)[C@@H](NC(=O)CNC(=O)[C@H](CCC(=O)O)NC(=O)[C@H](C)NC(=O)[C@@H](Cc1c[nH]cn1)NC(C)=O)[C@@H](C)O)[C@@H](C)O)C(=O)N[C@@H](CO)C(=O)N[C@@H](CCCCN)C(=O)N[C@@H](Cc1ccc(O)cc1)C(=O)N[C@@H](CC(C)C)C(=O)N[C@@H](CC(=O)O)C(=O)N[C@@H](CCC(=O)O)C(=O)N[C@@H](CCCNC(=N)N)C(=O)N[C@@H](C)C(=O)N[C@@H](C)C(=O)N[C@@H](CCC(N)=O)C(=O)N[C@@H](CC(=O)O)C(=O)N[C@@H](Cc1ccccc1)C(=O)N[C@H](C(=O)N[C@@H](CCC(N)=O)C(=O)N[C@@H](Cc1c[nH]c2ccccc12)C(=O)N[C@@H](CC(C)C)C(=O)N[C@@H](CC(C)C)C(=O)N[C@@H](CCC(=O)O)C(=O)NCC(=O)NCC(=O)N1CCC[C@H]1C(=O)N[C@@H](CO)C(=O)N[C@@H](CO)C(=O)NCC(=O)N[C@@H](C)C(=O)N1CCC[C@H]1C(=O)N1CCC[C@H]1C(=O)N1CCC[C@H]1C(=O)N[C@@H](CO)C(N)=O)C(C)C)C(=O)O) [peptide of SEQ ID NO: 148] |  |  |  |  | 2 | 0.178 |
| Ac-[dF]AQGTFTSDK([γGlu-Palmitoyl])SKYLDERAAQDFVQWLLEGGPSSGAPPPS-NH2 [peptide of SEQ ID NO: 150] | 0.011 |  |  |  | 2 | 0.014 |
| Ac-[dH]AEGTFTSDK([γGlu-Palmitoyl])SKYLDERAAQDFVQWLLEAGPSSGAPPPS-NH2 [peptide of SEQ ID NO: 154] | 0.024 |  |  |  | 4 | 0.847 |
